# The nanobody polyreactivity screen of Harvey et al. (2022)
# Test: yeast display, Sf9 membrane polyspecificity reagent, FACS + sequencing; frameworks hold sequencing errors
# Procedure, shortened: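 Galactose-induced (36–48 hours) yeast carrying a synthetic nanobody display library were exposed to 10% biotinylated, detergent-solubilized Sf9 membrane reagent at 4 °C for 1 hour. FACS followed streptavidin microbead enrichment, using low and high (top ~1%) gates for expression (anti-HA) and reagent binding (streptavidin). Colony PCR, MiSeq 2 × 250 sequencing and CDR-length filtering followed. Labels for polyreactivity reflect the gate of origin.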
row,Sequence,polyreactivity (PSR sort gate)
1,QVQLVESGGGLVQAGGILRLSCAASGRIKPRNAMGWYRQAPGKERELVAAISWDGGSTYYADSVKGRFTISRDNAKNTVYLQINSLKPVDTAVYYCNVYVSAGEEDEYWGQGTQVTVSS,low polyreactivity
2,QVQLVESGGGLVQAGGILRLSCAASGRILDYYAMGWYRQAPGKERELVAAISRSGSDTYYADSVKGRFTISRDNAKNTVYLQMNSLKPEETAVYYCAARWSYRSLARYNYWGQGTQVTVSS,low polyreactivity
3,QVQLVESGGGLVQAGGILRLSCAASGRSFDRNAMGWYRQAPGKERELVATISSGDTTDYADSVKGRFTISRDNATNTVYLQMNSLKPEDTAGYYITIYNYWGQGTQVTVSS,low polyreactivity
4,QVQLVESGGGLVQAGGILRLSCAASGRTLDCNAMGWYRQAPGKERELDAAITVTGSSTYYADSVKGRFTISRDNAKNTVYLQMNSLKPEDTAVYYCAKASGGDVRYSYSYRMDYWGQGTQVTVSS,low polyreactivity
5,QVQLVESGGGLVQAGGILRLSCAASGRTVVSYAMGWYRQQPGKGRELVAVITGGTGNTYYADSVKGRFTISRDNEKNTVYLQMNSLKREDTAVYYCNARGCYYKFRYPLYYWGQGTQVTVSS,high polyreactivity
6,QVQLVESGGGLVQAGGILRLSCAASGSIFAHYTMGWYRKAPGKERELVAAISGSGGSTYYADSVKGRFTISRDNAKNTVYLQMNSLKPEVTAVYYCNKRYRPVGPYDYWGQGTQVTVSS,high polyreactivity
7,QVQLVESGGGLVQAGGILRLSCAASGSIFKYYAMGWYRQAPGKERELVADISFGGDSTYYADSVKGRFTISRDNAKNTVYLQMNSLIPEDTAVYYCAAARYFWFVEYDYWGQGTQVTVSS,low polyreactivity
8,QVQLVESGGGLVQAGGILRLSCAASGSIFWYYARGWYRQARGKEREFVADITFSGGSTYYADSVNGRFTISRDNAKNTVYIQMNSLKPEDTAVYYCARDREPLTPVLGNYWGQGTQVTVSS,low polyreactivity
9,QVQLVESGGGLVQAGGILRLSCAASGSIIHFYAKGGYREAPGKEWELVAAITSGTSTYYADSVKGRFTISRDNAKNTVYLQMNSLKPDDTAVYYCAAEASHSYYNAYPSYCGSDYWGQGTQVTVSS,low polyreactivity
10,QVQLVESGGGLVQAGGILRLSCAASGSILTDNAMGWYRQAPGKERELVAAITSSGNTNYADSVKGRFTISRDNAKNTVFLQMNSLKPEDTAVYYCARDLREWGQGTQVTVSS,low polyreactivity
11,QVQLVESGGGLVQAGGILRLSCAASGSIYGYNAMGSYRQAPGKERELVADITSSGSTYYADSVKGRFTISRDNAKNTVYLQMNSLKPEDTAVYYCAARYFVYYLEVDSWGQGTQVTVSS,low polyreactivity
12,QVQLVESGGGLVQAGGILRLSCAASGSTFDPNVMGWYRQAPGKERELVAAITWSGGSTSYADSVKGRFTISRDNAKNTVYLQMNSLKPEDTAVYYCAADWHSWRWGYYYWGQGTQVTVSS,low polyreactivity
13,QVQLVESGGGLVQAGGILRLSCAASGSTFGRYAMGWYRQAPGKVRELVAAISRRGGSTYYADSVKGRFTISRDNAKKTVYLQMYSLKRQDTAVYYCGADDVRTTGCHFDYWGQGTEVTVSS,high polyreactivity
14,QVQLVESGGGLVQAGGILRLSCAASGSTFPGYAMGWYRQAPGKERELVAAISGNGVITYYADSVKGRFTISRDNAKNTVYLQMNSLKPEDTAVYYCNADRLYWGGYYGLTYWGQGTQVTVSS,low polyreactivity
15,QVQLVESGGGLVQAGGILRLSCAASGSTFWPYAMGWYRQAPGKERELVATNRGGGTSTYYADSVKGRFTISRDNAKNTVYLQMNSLKPEDTAVYYCAARGFFTGSYPGYYYWGLGTQVTVSS,high polyreactivity
16,QVQLVESGGGLVQAGGILRLSCAASGSTFYYNTMGWYRQAPGKERELVAAISWSGGSTYYADSVKGRFTISRDNAKTTVYLQINSLKPEDTAVYYSNKLRHISRTLYGYWGQGTQVTVSS,high polyreactivity
17,QVQLVESGGGLVQAGGILRLSCAASGSTGTYMGSYRQAPGKEREMVAAIDNIGDNTYYADSVKGRFTISRDNAKNTVYLQMNSLKPEDTAVYYCPADFYVYYPWLFEYDYWGQGTQVTVSS,low polyreactivity
18,QVQLVESGGGLVQAGGILRLSCAASGSTLTSNDMGWYRQAPGKERELFADITWSGGDTYYADSVKGRFTISRDNAKYTVYLQMNSLKPEDTAVYYCAAEDPNYRPFAYGIEYDYWGQGTQVTVSS,low polyreactivity
19,QVQLVESGGGLVQAGGILRLSCAASGYILYGYAMGWYTQAPGKERELVAAISNDGSTYYADSVKGRFTISRDNAKNTVYLQMNSLKPEDTAVYYCNADAWRKVPHPGTGGRDYWGQGTQVTVSS,high polyreactivity
20,QVQLVESGGGLVQAGGILRLSCAATGSTFVNNVMGWYRQGPRKESDLFAAISRRATSTRYADSVKGRFTISRDHAKNTVYLQMNSLKPEDTEVYYCAATLYVGVTGYGYWGQGTQVTVSS,high polyreactivity
21,QVQLVESGGGLVQAGGILRLSCAPSGLILKYYAMGWYRQAPGKEREFVAAITRRGGITYYADSVKGRFTISRDNAKNTVYLQMNSLKPEDTAVYYCAADPKLGSLAYWRYSYPLYDYWGQGTQVTVSS,low polyreactivity
22,QVQLVESGGGLVQAGGILRLSCAPSGRTLPPNAMGWYRHAPGKERELFAGSTWSGGSTYYADSVKGRFTISRDNAKNTVYLPMNSLKPEVTAVYYCAASRSFPGYGLYYYWGQGTQVTVSS,low polyreactivity

row,Sequence,polyreactivity (PSR sort gate)
1,QVQLVESGGGLVQAGGILRLSCASSGITFLTYTMGWYRQAPAKERELVAAISRSGGRTYYADSVKGRFTISRDNEKITVYLLMNSLKPEDTAVYYCDAVSATQDFDYWGQGTQETVSS,high polyreactivity
2,QVQLVESGGGLVQAGGILRLSCASSGRIFGVNAMGWYRQATGKERELVATISSGGSTYYADSVKGRFTISRDNAKNTVYLQLNSLKPEDTAVYYCAADTRRYYLARYRTDYWGQGTQVTVSS,high polyreactivity
3,QVQLVESGGGLVQAGGILRLSCASSGRTFKSYTMGWYRQAPGKERELVASISVSGGRTYYADSVKGRFTISRDNAKNTVYLQMNSLKPEDTAVYYCAAYYVHYRPVRGYDYWGQGTEVTVSS,high polyreactivity
4,QVQLVESGGGLVQAGGILRLSSAASGFIFKANAMGWSRQAPGKERELVAVITRRGGSTYYADSVKGSFTISRDNAKNTVYLQMNSLKREDTAVYYSAKEGSARYGPSDAYDYWGQGTQVTVSS,high polyreactivity
5,QVQLVESGGGLVQAGGILRLSSAASGFTFYLYTMGWYTPAPGKERELVAAISRSGDRTYYADSVKGRFTISRDNAKNTVYLQMNSLKPEDTAVYYCNAYTSYPNTMDYWGQGTQVTVSS,high polyreactivity
6,QVQLVESGGGLVQAGGILRLTSAGSGFNYYPYDMGWSRQAPGKERELVAAITQSGGSTYYADSVKGRFTISRDNAKITVYLQMISLKPEDTAVYSCNADTRGEYTYVSWYDYWGQGSQVTVSS,low polyreactivity
7,QVQLVESGGGLVQAGGILSLSCAASGFTFTVYDMGWYRQAPGKERELVAVITSGDGTYYADSVKGRFTISRDNAKNTVYLQMNSLKPEDTAVYYCNARRYSSFRYRFAYDYWGQGTQVTVTS,low polyreactivity
8,QVQLVESGGGLVQAGGNLRLSCAASGLIFGGYAMGWYRPAPGKERELVAAISRTGGRTYYADSVKVRFTISRDNAKNTVYLQMNSLKPEDTAVYYCATKRWWVRYDYWGQGTQVTVSS,high polyreactivity
9,QVQLVESGGGLVQAGGRHPVSCAASGRTIAYNAKGLYRQATGKERELVASITSGGSTNYADSVKGRFTISRDYAKNTVYLQMNSLKQEHTADYYFNKDGKYHRVLFEYWGQGTQVTVSS,low polyreactivity
10,QVQLVESGGGLVQAGGRLLLSCAASGGTFYRNAMGWYRLAPGKERELVASISRTGGSTYYADSVKGRFTISRDNAKNTVYLQMNSMKPEDTAVYYCNALPYSRGRWRPLSAVDYWGQGTQVTVSS,high polyreactivity
11,QVQLVESGGGLVQAGGRLRFSCAASGSTFRPNAMGWYRQAPGNERELVAAITRPGGSTFYADSVKGRFTISRDYAKHTVYLQMNSLKPEDTAVYYCATRQRVDLAPLARYGYWGQGTQVTVSS,low polyreactivity
12,QVQLVESGGGLVQAGGRLRLICAASASNFAGYDKGWYRQAPGKERELVAAITSGGDTYYADSVKGRFTISRDNAKNTGYLQMNSLKPEDTAVYYCNKDYILARYGGGRDYWGQGTQVTVSS,low polyreactivity
13,QVQLVESGGGLVQAGGRLRLRCAACGFTFARYAMGRSSQAPGKERELLAAITWSAGSTYYADSVKGRFTISRDTGKNTVFLQMTRLKPEDTAVYYCNALVIARNIEMDYWGQGTQVTVSS,high polyreactivity
14,QVQLVESGGGLVQAGGRLRLSCAASAFTFYYYAMGWYRPAPGKERELVAAISWSGGSTYYADSVKGRFTFSRDNAKNTVYLQMNSLKPEDTAVYYCAADVYKQYGYYYWGQGTQVTVSS,high polyreactivity
15,QVQLVESGGGLVQAGGRLRLSCAASGFIFAYYAMGWYRQAPGKERELVAAITIDGSTNYADSVKGRFTISRDNAKNTVYLQMNSLKPEDTAVYYCAAADHPPVCYGYWGQGTQVTVSS,low polyreactivity
16,QVQLVESGGGLVQAGGRLRLSCAASGFIFIRNAMGWYRQAPGKERELVAAITRSGGRTYYADSVKGRFTISRDKAKNTVYLQMNSLKPEDTAVYYCAADADAAWGQGTQVTVSS,high polyreactivity
17,QVQLVESGGGLVQAGGRLRLSCAASGFIFRAYAMGWYRQAPGKERELVAAISRGGGTYYADSVKGRFTISRDNAKNTVYLQMNSLKPEDTAVYYCAVDLLRRGFTTVVTTYDYWGQGTQVTVSS,high polyreactivity
18,QVQLVESGGGLVQAGGRLRLSCAASGFIFSLYAMGWYRQAPGKERELVAGISESGGSTYYADSVKGRFTISRDNAKNTVYLQMNSLKPEDTAVYYCNADDTVYFIKAGDYWGQGTQVTVSS,high polyreactivity
19,QVQLVESGGGLVQAGGRLRLSCAASGFIFSYYTMGCYRQAPGKERELVAAIRSSGGSTYADSVKGRFTISRDNAKNTVYLQMNSLNPEDTAVYYGAGGYYWNEPLYWYGDFDYWGQGTQVTVSS,high polyreactivity
20,QVQLVESGGGLVQAGGRLRLSCAASGFTFKLYAMGWYRQAPGKERELVASISRSGGSTFYADSVKGRFTISRDTAKNTGYLQMNSLKPEDTAVYYCATGWYYSPYNYWGQGTQVTVSS,high polyreactivity
21,QVQLVESGGGLVQAGGRLRLSCAASGFTFYYNDMGWYRQAPGKERELVAAITWSGGSTYYADSVKGRFTISRDNAKNTVYLQMNSLKPEDTAVYYCNARYWVHGYRYYYWGQGTQVTVSS,high polyreactivity
